From the supplement of paper PMC6757056
± gives the standard deviation of the averaged measurements.

B1: library; a variant is named by its letters at N, in order (parent)
chain: GCUGUCACCGAGAAACUGUGAAGUAUAUCUUAAACCUGGGCACUUAAAAGAUAUAUGGAGUUAGUAGUGCAACCUGCUCGGUCUGAUGAGUCCNNNNNNGGACGAAACAGC

How the values were obtained:
cyclic di-GMP [1] = variants of: B1; experiment: FACS-Seq fitted mean relative fluorescence mCherry/BFP without ligand (log10 relative fluorescence); HEK293T; ligand: cyclic di-GMP (c-di-GMP-II aptamer); higher = higher reporter protein expression; details: ligand present: no
Experimental: (§1)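 Hammerhead (sTRSV) ribozyme switch libraries with a ligand aptamer grafted on stem I and a randomized N4-6 loop II, cloned into the 3' UTR of mCherry and transiently transfected into HEK293T cells; RNA-Seq 72 h post transfection with ligand added 1 h before transfection; RNA read count / plasmid DNA read count normalized to the non-cleaving sTRSVctl (x100), log10; sequences with >100 DNA reads. FACS-Seq: lentiviral library sorted into 6 bins after 48 h ligand, log-normal fit mean of mCherry/BFP scaled to controls. Printed sequences are partial switch sequences.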

cyclic di-GMP [2] = variants of: B1; experiment: normalized RNA/DNA level without ligand (relative to sTRSVctl = 100) (log10 (% of sTRSVctl)); HEK293T; ligand: cyclic di-GMP (c-di-GMP-II aptamer); higher = less ribozyme self-cleavage, higher mRNA level; details: reporter: mCherry (pCS4076), ligand present: no
Experimental: as §1

cyclic di-GMP [3] = variants of: B1; experiment: FACS-Seq fitted mean relative fluorescence mCherry/BFP with ligand (log10 relative fluorescence); HEK293T; ligand: cyclic di-GMP (c-di-GMP-II aptamer); ligand concentration (+) FACS-Seq: 1 mM; higher = higher reporter protein expression; details: ligand present: yes
Experimental: as §1

cyclic di-GMP [4] = variants of: B1; experiment: normalized RNA/DNA level with ligand (relative to sTRSVctl = 100) (log10 (% of sTRSVctl)); HEK293T; ligand: cyclic di-GMP (c-di-GMP-II aptamer); ligand concentration (+) RNA-Seq: 1 mM; higher = less ribozyme self-cleavage, higher mRNA level; details: reporter: mCherry (pCS4076), ligand present: yes
Experimental: as §1

Variant	FACS-Seq fitted mean (log10) (cyclic di-GMP [1])	normalized RNA/DNA level without ligand (log10) (cyclic di-GMP [2])	FACS-Seq fitted mean (log10) (cyclic di-GMP [3])	normalized RNA/DNA level with ligand (log10) (cyclic di-GMP [4])
AAGGUU	-0.341 ± 0.089	1.59 ± 0.022	-0.152 ± 0.091	1.8 ± 0.1
AAGGUA	-0.681 ± 0.028	1.4 ± 0.091	-0.372 ± 0.038	1.57 ± 0.13
AAGGUG	-0.189 ± 0.0061	1.51 ± 0.072	0.04 ± 0.083	1.69 ± 0.11
UACGAA	-0.516 ± 0.06	1.61 ± 0.03	-0.204 ± 0.067	1.76 ± 0.1
AAAUUG	-0.199 ± 0.011	1.56 ± 0.096	-0.00914 ± 0.051	1.72 ± 0.097
UAUACU	0.0993 ± 0.048	1.722 ± 0.013	0.304 ± 0.012	1.85 ± 0.066
UAGACU	-0.164 ± 0.073	1.68 ± 0.051	0.141 ± 0.12	1.85 ± 0.13
AAGUUA	-0.499 ± 0.08	1.529 ± 0.0062	-0.215 ± 0.06	1.74 ± 0.14
AAGAGG	-0.546 ± 0.022	1.53 ± 0.052	-0.313 ± 0.016	1.68 ± 0.15
AAGAGA	-0.637 ± 0.058	1.33 ± 0.078	-0.296 ± 0.066	1.54 ± 0.094
GAGAGA	-0.796 ± 0.023	1.61 ± 0.037	-0.733 ± 0.053	1.72 ± 0.086
AACCCC	-0.0752 ± 0.016	1.78 ± 0.046	0.263 ± 0.041	1.89 ± 0.14
AACCCU	0.095 ± 0.16	1.69 ± 0.032	0.195 ± 0.28	1.84 ± 0.082
GACAUA	-0.45 ± 0.0083	1.52 ± 0.04	-0.156 ± 0.096	1.68 ± 0.064
AACCAA	-0.517 ± 0.035	1.43 ± 0.082	-0.235 ± 0.052	1.63 ± 0.1
AACCAU	-0.0934 ± 0.098	1.6 ± 0.025	0.0926 ± 0.016	1.76 ± 0.15
GAGCUG	0.303 ± 0.085	1.82 ± 0.078	0.439 ± 0.013	1.89 ± 0.1
CAGCAA	-0.468 ± 0.048	1.36 ± 0.094	-0.2496 ± 0.00056	1.51 ± 0.061
UAGAUG	0.0515 ± 0.09	1.53 ± 0.057	0.322 ± 0.085	1.75 ± 0.089
CACCUU	-0.0716 ± 0.019	1.48 ± 0.076	0.228 ± 0.071	1.67 ± 0.066
CACCUA	-0.26 ± 0.028	1.36 ± 0.15	0.0161 ± 0.13	1.58 ± 0.12
UAAUUU	-0.1701 ± 0.00076	1.688 ± 0.0068	-0.0196 ± 0.026	1.87 ± 0.11
CAGAAA	-0.664 ± 0.055	1.15 ± 0.12	-0.562 ± 0.02	1.28 ± 0.14
GAGAAG	-0.283 ± 0.064	1.71 ± 0.038	-0.00672 ± 0.064	1.79 ± 0.12

Variant	FACS-Seq fitted mean (log10) (cyclic di-GMP [1])	normalized RNA/DNA level without ligand (log10) (cyclic di-GMP [2])	FACS-Seq fitted mean (log10) (cyclic di-GMP [3])	normalized RNA/DNA level with ligand (log10) (cyclic di-GMP [4])
UACAAC	0.031 ± 0.034	1.68 ± 0.03	0.268 ± 0.013	1.8 ± 0.11
CACUAA	-0.523 ± 0.058	1.3 ± 0.16	-0.243 ± 0.011	1.48 ± 0.13
UAGUAU	-0.121 ± 0.12	1.61 ± 0.028	0.192 ± 0.1	1.78 ± 0.064
CACGUG	-0.341 ± 0.18	1.67 ± 0.019	-0.148 ± 0.21	1.84 ± 0.085
UACCAU	-0.473 ± 0.0049	1.663 ± 0.0085	-0.0951 ± 0.092	1.8 ± 0.12
GAAUGG	-0.119 ± 0.036	1.62 ± 0.041	0.0864 ± 0.016	1.75 ± 0.086
GACAAC	-0.156 ± 0.0096	1.63 ± 0.022	0.197 ± 0.1	1.82 ± 0.12
GACAAG	-0.339 ± 0.07	1.55 ± 0.029	-0.0999 ± 0.034	1.72 ± 0.084
CAGAUA	-0.713 ± 0.024	1.23 ± 0.053	-0.483 ± 0.0048	1.43 ± 0.065
CACUUG	-0.104 ± 0.083	1.74 ± 0.026	0.131 ± 0.0033	1.87 ± 0.12
CACUUA	-0.231 ± 0.015	1.43 ± 0.04	-0.0377 ± 0.081	1.59 ± 0.11
GAGCGU	-1.38 ± 0.089	1.814 ± 0.0041	-1.2 ± 0.013	1.9 ± 0.052
GAGCGC	-0.228 ± 0.14	1.79 ± 0.049	-0.101 ± 0.16	1.83 ± 0.082
UACGCU	-0.169 ± 0.063	1.71 ± 0.032	0.108 ± 0.051	1.86 ± 0.098
UAGGCU	-0.161 ± 0.14	1.75 ± 0.031	0.0436 ± 0.011	1.88 ± 0.11
AACAAG	-0.43 ± 0.028	1.523 ± 0.0073	-0.281 ± 0.037	1.73 ± 0.088
AACAAU	-0.133 ± 0.038	1.594 ± 0.0028	0.103 ± 0.014	1.71 ± 0.13
CACAUU	-0.323 ± 0.046	1.58 ± 0.025	-0.0216 ± 0.035	1.7 ± 0.1
CACAUA	-0.521 ± 0.032	1.26 ± 0.07	-0.272 ± 0.044	1.52 ± 0.093
GACUUG	-0.257 ± 0.031	1.63 ± 0.023	-0.0923 ± 0.026	1.79 ± 0.12
GACUUU	-0.222 ± 0.11	1.723 ± 0.0052	0.162 ± 0.028	1.85 ± 0.083
GACUUA	-0.438 ± 0.043	1.5846 ± 6e-05	-0.219 ± 0.05	1.76 ± 0.1
GACGAA	-0.377 ± 0.016	1.43 ± 0.12	-0.01 ± 0.049	1.65 ± 0.085
GACGAU	-0.37 ± 0.031	1.59 ± 0.021	-0.0677 ± 0.044	1.74 ± 0.14

Variant	FACS-Seq fitted mean (log10) (cyclic di-GMP [1])	normalized RNA/DNA level without ligand (log10) (cyclic di-GMP [2])	FACS-Seq fitted mean (log10) (cyclic di-GMP [3])	normalized RNA/DNA level with ligand (log10) (cyclic di-GMP [4])
GAGCCU	-0.783 ± 0.038	1.79 ± 0.072	-0.638 ± 0.064	1.89 ± 0.12
GAAUUG	-0.422 ± 0.012	1.57 ± 0.096	-0.0224 ± 0.071	1.74 ± 0.11
AACUGA	-0.155 ± 0.014	1.54 ± 0.047	0.0803 ± 0.017	1.68 ± 0.12
AACUGG	-0.198 ± 0.17	1.59 ± 0.049	0.149 ± 0.048	1.77 ± 0.17
UACAGA	-0.198 ± 0.37	1.61 ± 0.052	-0.101 ± 0.13	1.75 ± 0.14
GACGGA	-0.135 ± 0.078	1.47 ± 0.078	0.0761 ± 0.072	1.63 ± 0.076
UAGGGU	-0.424 ± 0.015	1.61 ± 0.075	-0.0926 ± 0.068	1.78 ± 0.13
UAGGGA	-0.172 ± 0.12	1.53 ± 0.039	-0.000875 ± 0.13	1.68 ± 0.14
AACUCC	0.000732 ± 0.015	1.815 ± 0.0033	0.225 ± 0.013	1.91 ± 0.097
GACCUA	-0.232 ± 0.041	1.621 ± 0.011	0.101 ± 0.016	1.77 ± 0.11
GACCUG	-0.44 ± 0.12	1.66 ± 0.022	-0.213 ± 0.13	1.81 ± 0.11
UAGAAA	-0.272 ± 0.026	1.58 ± 0.037	-0.0653 ± 0.024	1.75 ± 0.18
UAGAAU	-0.456 ± 0.092	1.56 ± 0.036	-0.193 ± 0.12	1.75 ± 0.13
GACAGA	-0.179 ± 0.21	1.52 ± 0.065	0.0814 ± 0.049	1.7 ± 0.068
AAUAAA	-0.411 ± 0.041	1.47 ± 0.097	-0.166 ± 0.054	1.69 ± 0.069
UAUAAA	-0.114 ± 0.051	1.66 ± 0.026	0.111 ± 0.097	1.79 ± 0.13
AAGAAA	-0.319 ± 0.062	1.38 ± 0.11	-0.0342 ± 0.062	1.56 ± 0.035
AAGAAU	-0.565 ± 0.046	1.54 ± 0.062	-0.225 ± 0.05	1.74 ± 0.073
AAGAAC	-1.03 ± 0.025	1.55 ± 0.029	-0.842 ± 0.066	1.73 ± 0.1
AACAGU	-1.23 ± 0.038	1.57 ± 0.076	-1.08 ± 0.027	1.76 ± 0.063
AACAGA	-0.897 ± 0.023	1.39 ± 0.14	-0.683 ± 0.0078	1.59 ± 0.11
AAGGGU	-0.547 ± 0.0094	1.53 ± 0.091	-0.278 ± 0.052	1.7 ± 0.061
AAGGGA	-0.6377 ± 0.005	1.38 ± 0.072	-0.444 ± 0.023	1.5 ± 0.13
